Data from PMC3524233, “Disulfide Bonds within the C2 Domain of RAGE Play Key Roles in Its Dimerization and Biogenesis” (PLoS ONE, 2012).

B1: RAGE C2 domain-only fragment (residues 235-404) (domain or fragment, UniProt Q15109 235-404, looked up)
chain: LEEVQLVVEPEGGAVAPGGTVTLTCEVPAQPSPQIHWMKDGVPLPLPPSPVLILPEIGPQDQGTYSCVATHSSHGPQESRAVSISIIEPGEEGPTAGSVGGSGLGTLALALGILGGLGTAALLIGVILWQRRQRRGEERKAPENQEEEEERAELNQSEEPEAGESSTGGP
notes: RAGE C2 domain-only fragment, residues 235-404 (C2 domain with the transmembrane helix and the cytosolic portion); also called C2 fragment; source: CHO-CD14, transfected, expressed on the cell surface, in membrane extracts
B2: canonical full-length RAGE from mouse lung (receptor, mouse (endogenous in lung), UniProt Q62151 23-402, looked up)
chain: GQNITARIGEPLVLSCKGAPKKPPQQLEWKLNTGRTEAWKVLSPQGGPWDSVARILPNGSLLLPATGIVDEGTFRCRATNRRGKEVKSNYRVRVYQIPGKPEIVDPASELTASVPNKVGTCVSEGSYPAGTLSWHLDGKLLIPDGKETLVKEETRRHPETGLFTLRSELTVIPTQGGTHPTFSCSFSLGLPRRRPLNTAPIQLRVREPGPPEGIQLLVEPEGGIVAPGGTVTLTCAISAQPPPQVHWIKDGAPLPLAPSPVLLLPEVGHEDEGTYSCVATHPSHGPQESPPVSIRVTETGDEGPAEGSVGESGLGTLALALGILGGLGVVALLVGAILWRKRQPRREERKAPESQEDEEERAELNQSEEAEMPENGAGGP
notes: mouse RAGE, the canonical full-length isoform of lung tissue; source: endogenous, crude membrane fraction of wild-type (C57BL/6) mouse lung

Key:
[1] = molecular target: the molecule itself; assay: non-reducing SDS-PAGE with immunoblot; membrane extracts of transfected CHO-CD14 cells; DTT omitted from the loading buffer, 2% LDS, 80°C for 10 min, NuPAGE 4-12% Bis-Tris gel
[2] = molecular target: the molecule itself; assay: non-reducing SDS-PAGE with immunoblot; crude membrane fraction of mouse lung (homogenised with 20 mM N-ethylmaleimide), 15 µg, 4-12% gradient gel, reducing and non-reducing, IB with anti-RAGE; RAGE knockout lung as control

| Protein | stoichiometry N [1] | stoichiometry N [2] |
| --- | --- | --- |
| B1 | 2 |  |
| B2 |  | 2 |
